The values that follow come from PMC9585516, “In Vitro Demonstration of Human Lipoyl Synthase Catalytic Activity in the Presence of NFU1” (ACS Bio & Med Chem Au, 2022).

The labels stand for the following.
B1: human NFU1, amino acids 59-254, holo form (domain or fragment)
chain: GHMFIQTQDTPNPNSLKFIPGKPVLETRTMDFPTPAAAFRSPLARQLFRIEGVKSVFFGPDFITVTKENEELDWNLLKPDIYATIMDFFASGLPLVTEETPSGEAGSEEDDEVVAMIKELLDTRIRPTVQEDGGDVIYKGFEDGIVQLKLQGSCTSCPSSIITLKNGIQNMLQFYIPEVEGVEQVMDDESDEKEANSP
notes: Gly-His N-terminal appendage left after removal of the His6-SUMO tag; NFU1, human, Q9UMS0 (full length 1-254), N-terminally truncated variant, amino acids 59-254; Holo form with a [4Fe-4S] cluster; also called holo-NFU1; NFUI; source: E. coli BL21 (DE3) with pDB1282, purified under anoxic conditions (Ni-IMAC, SUMO tag removed with ULP1, SEC); not shown: His6, N-terminal, cleaved; SUMO, …
B2: human lipoyl synthase (LIAS), amino acids 28-372, holo form (enzyme)
chain: GHLSSLPDKKKELLQNGPDLQDFVSGDLADRSTWDEYKGNLKRQKGERLRLPPWLKTEIPMGKNYNKLKNTLRNLNLHTVCEEARCPNIGECWGGGEYATATATIMLMGDTCTRGCRFCSVKTARNPPPLDASEPYNTAKAIAEWGLDYVVLTSVDRDDMPDGGAEHIAKTVSYLKERNPKILVECLTPDFRGDLKAIEKVALSGLDVYAHNVETVPELQSKVRDPRANFDQSLRVLKHAKKVQPDVISKTSIMLGLGENDEQVYATMKALREADVDCLTLGQYMQPTRRHLKVEEYITPEKFKYWEKVGNELGFHYTASGPLVRSSYKAGEFFLKNLVAKRKTKDL
notes: Gly-His N-terminal appendage left after removal of the His6-SUMO tag; Holo form with two [4Fe-4S] clusters; also called holo-LIAS; source: E. coli BL21 (DE3) with pDB1282, purified under anoxic conditions (Ni-IMAC, SUMO tag removed with ULP1, SEC); not shown: His6, N-terminal, cleaved; SUMO, N-terminal, cleaved

In assay [1] the target is B2. The assay can be described thus: ITC; 2 uL injections of LIAS (150 uM, syringe) into NFU1 (19 uM, cell) at 27 °C, anaerobic; 0.1 M HEPES pH 7.5, 0.5 M KCl, 5% glycerol, 2 mM TCEP. As to conditions: both partners purified. A general note: ITC needs no label: the signal is the heat of the interaction.
Assay [2] addresses B1. In words: SEC; HiPrep 16/60 Sephacryl HR S-200 in an anaerobic glovebox, 0.5 mL/min; 50 mM HEPES pH 7.5, 250 mM KCl, 10% glycerol, 2.5 mM TCEP, 10 mM BME; holo-LIAS alone (100 uM), holo-NFU1 alone (200 uM) and a 1:1 mixture; masses from a calibration curve; peak fractions checked by SDS-PAGE. The conditions noted are these: both partners purified. (In general: SEC sorts molecules by how far they enter the pores of the column.)

A word on the Kd: it is the concentration at which binding is half-saturated. A low value points to tighter binding. A word on the stoichiometry N: it is a count of units in the complex or per binding partner.

Molecule B1 yielded a dissociation constant Kd in assay [1] of 700 ± 200 nM. Turning to B2, the “stoichiometry N” value in assay [2] was 1.
